Experiment [1] addresses T1, hu-IL-36β (human IL-36β, N-terminally truncated active form R5-E157) (human).
T1 chain: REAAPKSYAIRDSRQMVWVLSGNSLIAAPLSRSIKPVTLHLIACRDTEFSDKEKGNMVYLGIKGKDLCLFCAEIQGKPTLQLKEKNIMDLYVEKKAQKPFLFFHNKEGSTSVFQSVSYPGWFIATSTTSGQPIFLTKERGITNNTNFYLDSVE
Kind of experiment: cell-based or functional assay.

For experiment [2], the target named is T1, hu-IL-36β (human IL-36β, N-terminally …). Put plainly: SPR (Biacore 8K), biotinylated hu-IL-36β captured on CAP chip, Fab injected, 37°C. As to the method: (§1) Briefly, a 1:4 dilution of Biotin CAPture Reagent (GE) into HBS-EP buffer (0.01 M HEPES pH 7.4, 0.15 M NaCl, 3 mM EDTA, 0.005% Surfactant P20) was applied to a CAP sensor chip at 2 uL/min flow rate. For kinetics measurements, 6 nM biotinylated human IL-36β was captured at 10 uL/min to achieve ˜50 response units in the second flow cell (FC2). FC1 was kept as a reference. […] The sensorgram was recorded and subject to reference and buffer subtraction before evaluating by BIACORE® 8K Evaluation Software (version 1.1.1.7442). Association rates (kₒₙ) and dissociation rates (koff) were calculated using a simple one-to-one Langmuir binding model.
On the technique in general: SPR reads the build-up and loss of mass on a sensor chip optically.

Experiment [3] concerns the target T2, hu-IL-36γ (human IL-36γ, N-terminally truncated active form S18-D169) (human, UniProt Q9NZH8 18-169).
T2 construct: Purification tag cleaved off; Biotinylated where captured; also called hu-IL-36g
T2 sequence: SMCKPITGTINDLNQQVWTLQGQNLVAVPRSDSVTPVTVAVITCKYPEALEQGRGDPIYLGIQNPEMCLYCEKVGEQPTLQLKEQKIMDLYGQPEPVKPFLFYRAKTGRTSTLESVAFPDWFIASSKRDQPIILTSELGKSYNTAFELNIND
Put plainly: SPR (Biacore 8K), biotinylated hu-IL-36 captured on CAP chip, Fab injected, 37°C. Here is the method:
as §1, with “3” for “6”, “IL-36α and human IL-36γ” for “IL-36β”

Experiment [4] addresses T3, hu-IL-36α (human IL-36α, N-terminally truncated active form K6-F158) (human, UniProt Q9UHA7 6-158).
T3 construct: Purification tag cleaved off; Biotinylated where captured (SPR, some ELISAs); also called hu-IL-36a
T3 sequence: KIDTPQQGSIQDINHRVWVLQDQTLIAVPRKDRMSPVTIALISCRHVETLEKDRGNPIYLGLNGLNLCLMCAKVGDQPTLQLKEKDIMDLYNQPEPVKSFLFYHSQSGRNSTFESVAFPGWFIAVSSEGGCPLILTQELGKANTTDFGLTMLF
The experiment is described as above. As to the method:
as §1, with “3” for “6”, “IL-36α and human IL-36γ” for “IL-36β”

Experiment [5] addresses T2, hu-IL-36γ (human IL-36γ, N-terminally …). Put plainly: phage competition ELISA: Fab on phage, soluble hu-IL-36γ titrated against coated hu-IL-36γ. As to the method:
(§2) Selected phages with top binding signal were purified to perform phage competition ELISA. The optimal phage concentration was incubated with serially-diluted human IL-36α or human IL-36γ in ELISA buffer in NUNC F plate for two hours. 80 μL of the mixture was transferred to human IL-36α or human IL-36γ coated wells for 15 min to capture unbound phage. The plate was washed with wash buffer (0.05% TWEEN®20 in PBS), and HRP-conjugated anti-M13 antibody (Sino biological, Cat #11973-MM05-H-50) was added in ELISA buffer for 30 min. The plates were washed and developed as described above. The absorbance at 450 nm was plotted as a function of antigen concentration in solution to determine phage IC50.

Experiment [6] addresses T3, hu-IL-36α (human IL-36α, N-terminally …). Put plainly: phage competition ELISA: Fab on phage, soluble hu-IL-36α titrated against coated hu-IL-36α. As to the method: as §2
(ELISA stands for enzyme-linked immunosorbent assay.)

The record followed here is US20230235040A1 (ALMIRALL S A, published 2023).

B1: mAb6_2.5 Fab (Fab, V domains shown)
VH: ELQLQESGPGLVKPSETLSLTCTVSGGSITASNYYWGWIRQPPGKGLEWIGSIDYTGSTYYEPSLKSRVTISVDTSKNQFSLKLSSVTAADTAVYYCATGSYYETYLGFDVWGQGTLVTVSS
VL: ESVLTQPPSVSGAPGQRVTISCTGSSSNIGAHYDVHWYQQLPGTAPKLLIYGNDNRPSGVPDRFSGSKSGTSASLAITGLQAEDEADYYCQSYDYSLSGYVFGGGTKLTVL
notes: Recombinant Fab with 8xHis tag (Expi293F)
The Kd is a measure of binding affinity in units of concentration. A word on the koff: it is the first-order rate constant of dissociation. The low end stands for slow dissociation, the high end for fast dissociation. By kon is commonly meant a measure of how fast the partners come together. High values mean faster complex formation, low ones slower complex formation. Turning to B1, the “IC50, IL-36-stimulated IL-8 secretion by HaCat cells” value (shortened to “IC50 … by HaCat cells”) in experiment [1] was 0.2 nM. In experiment [2], this molecule came in with a Kd of 0.66 nM, a koff of 0.000476 s⁻¹ and a kon of 717000 M⁻¹ s⁻¹.

B2: mAb6 Fab (Fab, V domains shown)
VH: ELQLQESGPGLVKPSETLSLTCTVSGGSITSSNYYWGWIRQPPGKGLEWIGSIDYTGSTYYNPSLKSRVTISVDTSKNQFSLKLSSVTAADTAVYYCARGKYYETYLGFDVWGQGTLVTVSS
VL: ESVLTQPPSVSGAPGQRVTISCTGSSSNIGAGYDVHWYQQLPGTAPKLLIYGNTNRPSGVPDRFSGSKSGTSASLAITGLQAEDEADYYCQSYDISLSGWVFGGGTKLTVL
Turning to B2, the “IC50 … by HaCat cells” value in experiment [1] was 0.15 nM.

B3: mAb6_2.7 Fab (Fab, V domains shown)
VH: ELQLQESGPGLVKPSETLSLTCTVSGGSITASNTYWGWIRQPPGKGLEWIGSIDYTGSTYYNPSLKSRVTISVDTSKNQFSLKLSSVTAADTAVYYCATGKYYETYLGFDVWGQGTLVTVSS
VL: ESVLTQPPSVSGAPGQRVTISCTGSSSNIGAHYDVHWYQQLPGTAPKLLIYGNDNRPSGVPDRFSGSKSGTSASLAITGLQAEDEADYYCQSYDYSLSGYVFGGGTKLTVL
notes: as for B1
With B3, the “IC50 … by HaCat cells” value in experiment [1] amounted to 0.2 nM. In experiment [2], the Kd came to 0.61 nM, the off-rate (koff) stood at 0.00018 s⁻¹ and the kon amounted to 297000 M⁻¹ s⁻¹.

B4: mAb6_2.8 Fab (Fab, V domains shown)
VH: ELQLQESGPGLVKPSETLSLTCTVSGGSITASNYYWGWIRQPPGKGLEWIGSIDYTGSTYYNPSLKSRVTISVDTSKNQFSLKLSSVTAADTAVYYCASGKYYETYLGFDVWGQGTLVTVSS
VL: ESVLTQPPSVSGAPGQRVTISCTGSSSNIGAHYDVHWYQQLPGTAPKLLIYGNDNRPSGVPDRFSGSKSGTSASLAITGLQAEDEADYYCQSYDYSLSGYVFGGGTKLTVL
notes: as for B1
B4: the “IC50 … by HaCat cells” value in experiment [1] was determined as 0.33 nM. Also, in experiment [2], the dissociation constant Kd is 1.08 nM, the koff was found to be 0.000343 s⁻¹ and the on-rate constant (kon) is 317000 M⁻¹ s⁻¹.

B5: mAb2.8 Fab (Fab, V domains shown)
VH: ELQLQESGPGLVKPSETLSLTCTVSGGSISDSSYYWGWIRQPPGKGLEWIGSIYYTGETYYAPSLKSRVTISVDTSKNQFSLKLSSVTAADTAVYYCARLRYGVGVPRYFDPWGQGTLVTVSS
VL: ESVLTQPPSVSGAPGQRVTISCTGSSSNIGAHYDVHWYQQLPGTAPKLLIYGNDNRPSGVPDRFSGSKSGTSASLAITGLQAEDEADYYCQSYDYSLSGYVFGGGTKLTVL
notes: as for B1
In experiment [3], B5 displayed a Kd of 0.17 nM, a koff of 0.000301 s⁻¹ and a kon of 1.8e+06 M⁻¹ s⁻¹. In addition, in experiment [4], binding was characterised by a dissociation constant (Kd) of 0.14 nM, the koff came out at 0.000254 s⁻¹ and the kon is 1.83e+06 M⁻¹ s⁻¹.

B6: mAb6_2.6 Fab (Fab, V domains shown)
VH: ELQLQESGPGLVKPSETLSLTCTVSGGSITASNYYWGWIRQPPGKGLEWIGSIDYTGSTYYEPSLKSRVTISVDTSKNQFSLKLSSVTAADTAVYYCATGNYYETYLGFDVWGQGTLVTVSS
VL: ESVLTQPPSVSGAPGQRVTISCTGSSSNIGAHYDVHWYQQLPGTAPKLLIYGNDNRPSGVPDRFSGSKSGTSASLAITGLQAEDEADYYCQSYDYSLSGYVFGGGTKLTVL
notes: as for B1
In experiment [2], B6 gave a Kd of 0.82 nM, an off-rate (koff) of 0.000705 s⁻¹ and a kon of 856000 M⁻¹ s⁻¹.

B7: mAb6_2.9 Fab (Fab, V domains shown)
VH: ELQLQESGPGLVKPSETLSLTCTVSGGSITSSNYYWGWIRQPPGKGLEWIGSIDYTGSTYYNPSLKSRVTISVDTSKNQFSLKLSSVTAADTAVYYCATGKYYETYLGFDVWGQGTLVTVSS
VL: ESVLTQPPSVSGAPGQRVTISCTGSSSNIGAHYDVHWYQQLPGTAPKLLIYGNDNRPSGVPDRFSGSKSGTSASLAITGLQAEDEADYYCQSYDYSLSGYVFGGGTKLTVL
notes: as for B1
In experiment [2], B7 returned a Kd of 1.37 nM, a koff of 0.000411 s⁻¹ and a kon of 299000 M⁻¹ s⁻¹.

B8: mAb6_2.10 Fab (Fab, V domains shown)
VH: ELQLQESGPGLVKPSETLSLTCTVSGGSITSSNYYWGWIRQPPGKGLEWIGSIDYTGSTYYQPSLKSRVTISVDTSKNQFSLKLSSVTAADTAVYYCARGNYYETYLGFDVWGQGTLVTVSS
VL: ESVLTQPPSVSGAPGQRVTISCTGSSSNIGAHYDVHWYQQLPGTAPKLLIYGNDNRPSGVPDRFSGSKSGTSASLAITGLQAEDEADYYCQSYDYSLSGYVFGGGTKLTVL
notes: as for B1
In experiment [2], B8 had a Kd of 2.47 nM, a koff of 0.00103 s⁻¹ and an on-rate constant (kon) of 415000 M⁻¹ s⁻¹.

B9: mAb2.12 Fab (Fab, V domains shown)
VH: ELQLQESGPGLVKPSETLSLTCTVSGGSISESSYYWGWIRQPPGKGLEWIGSIYYTGETYYAPSLKSRVTISVDTSKNQFSLKLSSVTAADTAVYYCARVKYGVGVPRYFDPWGQGTLVTVSS
VL: ESVLTQPPSVSGAPGQRVTISCTGSSSNIGAHYDVHWYQQLPGTAPKLLIYGNDNRPSGVPDRFSGSKSGTSASLAITGLQAEDEADYYCQSYDYSLSGYVFGGGTKLTVL
notes: as for B1
In the case of B9, in experiment [3], binding was put at a Kd of 0.28 nM, the koff was determined as 0.000503 s⁻¹ and the kon stood at 1.81e+06 M⁻¹ s⁻¹. In addition, in experiment [4], the Kd worked out at 0.16 nM, the koff came out at 0.000277 s⁻¹ and the on-rate constant (kon) was 1.7e+06 M⁻¹ s⁻¹.

B10: mAb2.9 Fab (Fab, V domains shown)
VH: ELQLQESGPGLVKPSETLSLTCTVSGGSISDSSYYWGWIRQPPGKGLEWIGSIYYTGETYYAPSLKSRVTISVDTSKNQFSLKLSSVTAADTAVYYCARVKYGVGVPRYFDPWGQGTLVTVSS
VL: ESVLTQPPSVSGAPGQRVTISCTGSSSNIGAHYDVHWYQQLPGTAPKLLIYGNDNRPSGVPDRFSGSKSGTSASLAITGLQAEDEADYYCQSYDYSLSGYVFGGGTKLTVL
notes: as for B1
As to B10, in experiment [3], the dissociation constant (Kd) was 0.24 nM, the koff amounted to 0.000565 s⁻¹ and the kon is 2.4e+06 M⁻¹ s⁻¹. In experiment [4], the dissociation constant Kd is 0.12 nM, the koff worked out at 0.00026 s⁻¹ and the kon turned out to be 2.19e+06 M⁻¹ s⁻¹.

B11: mAb2.1 Fab (phage-displayed) (Fab, V domains shown)
VH: ELQLQESGPGLVKPSETLSLTCTVSGGSISDSSYYWGWIRQPPGKGLEWIGSIYYTGNTYYNSSLKSRVTISVDTSKNQFSLKLSSVTAADTAVYYCARVRYGVGVPRYFDPWGQGTLVTVSS
VL: ESVLTQPPSVSGAPGQRVTISCTGSSSNIGAHYDVHWYQQLPGTAPKLLIYGNDNRPSGVPDRFSGSKSGTSASLAITGLQAEDEADYYCQSYDYSLSGYVFGGGTKLTVL
For orientation: IC50 means the concentration that gives 50% inhibition. The low end stands for higher potency, the high end for lower potency. Turning to B11, the IC50 in experiment [5] was determined as 4.86 nM; in experiment [6] it was 1.03 nM.
